Test results as given in a protein production outcome set (Wang et al. 2014).

Assay: label from the status in PepcDB records
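Also: failed if final PepcDB status was selected cloned or expressed and not failed if soluble or beyond.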

Sequence | protein production
MSTDRETVRSYDAVAAEYAAEAAVMPEWVATEIDVFVTELSGSGRVLEIGSGGGRDALELEKRGMSVRRTDISKGFVELLRESGFEADLLDPLTDDLADPQRPSMPYDGIWACACLIHVARGDFGTVLGRLAEATRSGGRLHVSVREGDGEDLSTHGSAAAPRRYVETYWREPALRSALTDAGWIVNDVRRYVGRPHDRWLSVRASRA | failed
MSDSKFLRGTLIVTLGTFLVKFLGMIYVFPFHALVGTEGGTLYTYGYIPYTIFLSIATAGVPLAVSKFVSKYNALGDYKTSRRMFRSGMVMMIVTGVLSFLVLYMTAPLFAEAMLGKQSIHNNVGEVTTIIRLVSFALIVVPAASLIRGYFQGHQSMGPTTVSQIIEQIIRIVFLLAGSFIVIKVLGGTVATAVGVATFAAFVSAVGALGVLIWYWLKRKKYLDQYLIEQTVPESTVSTVQLFKELFAYAIPYVVIGLTIPLYQQIDTLTFNSIMQAIGQGDIAERALGIFTMWTHKLIMIPVSLATAFSLTLVPAITKSFTEKQYRYLKLQITQTFQANMFLTLPAVVGISSLAYPIYTAFYDSDPLGGQVLMWYAPVALLFALFTVTAAILQGINQQKHAIIALIMGVILKFVCNVIFIRYFGTVGAILATAVGFLASVWYTNQQIKKYAHYSFGVVYKRTFQIAVLTLIMVVAVKLSQWILSFMISPDGRIGALITVAICAGIGGLVYGLLAIRTGVLERVFGGEALDKIQRKLGSRFKIKLKSRGA | not failed
MKKSLVVCALSAAVLLSGCETVNTTSGGVVGVDRKQSMFSMVSSAEVNQSYAQSYQQTLGEASSQGVLDKTSANAKRLQVIANRLIAQAPTFRPDCAQWKWEVNLIKSDELNANCGPGGKIIFYSGLIEKLKLTDDEIAAVMGHEIAHALREHGREAMSKQYAVGAGKQIATLFGVPQETVALGDNGVNLLMTLPNSRENENEADLIGLELAARAGYNPNAAISLWNKMGQAAGGSAPPEFMSTHPASTSRIASLQAAIPKVMPLYQAAKKSLEHHHHHH | failed
ERRGFSAEDFKTFHPGGKLGSQLLLAHELAHSGEAVPLLPIGSPMSEAVIQMSSKGFGVVGVVGGDGELVGVITDGDLRRHMSQSLLLLTVETVMSHMPRVITPGMLASAAMEMMQSQKITVLFLVDDVGRPSGILHVHDLLRA | failed
MQITIKVLKGKDCTIEVAPTSTILEVKHQIEAELQISATNQKLLLLGRPLNNEQTIASYPNIKEGTKLNLVVIKP | failed
MKLAIVTACPGGQVTSVLAARLLRGAAERLGWETCVEANAGSRPEGELSAEQIAEADWVLLVGVEPLAAARFVGKPVYRARPAEALADPRAFLQRAAALASVEVAGDEAGLVAPEAGAAPRIVAVTACPTGVAHTFMAAEALQLAAGQLGFALQVETQGSVGARNPLDPADIAAADVVLLAADIDVDTARFAGKKIYRCGTGVALKQARATLERALAEGQVESAGAASAVVARDEKRGVYKHL | failed
MNLNIRIKNYWEGEAQGYSEAIEDELNGFERKAWSDLVLEYAPSKDRLDILDIGTGPGFFPIVLSQGGHNVTGIDLTENMIEFARLNLAREGASAKLVTMDCQNLKFPDNCFDLLVCRNLTWTLDDPAKAYKEWHRVLKPGGRVLIFDACWYLHLFDENMKIAYEKKEKEILMKYGHPMHQHKDQVEGDALSRKLFMSDKVRPQWDLDIMLKLGFSKVFADTSVGERILNEQQQDRNSMHPPFLVGGEK | failed
EPRVNTSALQKIAADMSNIIENLDTRELHFEGEEVDYDVSPSDPKIQEVYIPFSAIYNTQGFKEPNIQTYLSGCPIKAQVLEVERFTSTTRVPSINLYTIELTHGEFKWQVKRKFKHFQEFHRELLKYKAFIRIPIPTRRHTFRRQN | failed
MIYLRKANERGHANHGWLDSWHTFSFANYYDPNFMGFSALRVINDDVIEAGQGFGTHPHKDMEILTYVLEGTVEHQDSMGNKEQVPAGEFQIMSAGTGIRHSEYNPSSTERLHLYQIWIMPEENGITPRYEQRRFDAVQGKQLVLSPDARDGSLKVHQDMELYRWALLKDEQSVHQIAAERRVWIQVVKGNVTINGVKASTSDGLAIWDEQAISIHADSDSEVLLFDLPPV | not failed
MEIEYIKDYRDINQEDDTVLILGYFDGLHRGHKALFDKAREVANKEGLKVVVFTFTESPKLAFSRFSPELLLHITYPKKRYEKFADYGVNKLYLVDFTSKFSKVSSDHFITHYIKNLKAKHIVVGFDYKFGHNRTDSDYLTRNFEGQVYTIEEIKEDHRKISATWIRKLIQEGNVVKANHLLGYDLSTRGRVVHGDARGRTIGFPTANLAPIDNTYLPADGVYVTNVIVANKIYRSMTSLGKNVTFGGKELRLEVNIFDFDEEIYGEIIEIVWLDKIRDMEKFEGIEDLTDRLEYDKRTALNWKKDSKLS | failed
MFLTVKLLLGQRCSLKVSGQESVATLKRLVSRRLKVPEEQQHLLFRGQLLEDDKHLSDYCIGPNASINVIMQPLEKMAL | failed
MVMFRGHLLCFGLGYSALRLARGLLRDGWRVSGTCRSEEKRQALSAQGITAFVFDETTPLPAEAWTGVTHVLVSIPPGPDGDPVLALHRADLLALRPEWLGYFSTTGVYGDTGGAWVDEGKPVRPTQERSKRRVAAEEDWLDLWRDEDLPVHLLRLAGIYGPGRSVFDQLRAGTAKRIIRPGHAFSRIHVDDIGLITRASMADPDPGAIYNLVDDEPAEPSEVMDHACALLGIDPPPAQSFDEVAPGLSPMALSFWADNRKVSNERLWDDLRLRLLYPTFRQGLEAILAEETGRVAEGPPVYKEASDC | failed
MVSTLGSDTFTSISAHDLHGKLGNIHLIDVRENDDFKEGHIPTSRNIPMDILLKEPEKYINKTDEYYIVCQAGVKSEKTCKELWSKGYKVINIKDGTDSYKQPLEHHHHHH | failed
MPQAKKRTSTKRKGNKKTNKKKQNETPLRYIFSIIVVILIILGAFQLGIIGRMIDSFFNYLFGMSRYLTYILVLIATIFITYSKQIPRTRRSIGAIVLQLALLFIAQLYFHFSHNITSQREPVLSFVYKAYEQTHFPNFGGGLIGFYLLKLFIPLISIVGVIIITILLLASSFILLLNLRHRDVTKSLFDNLKSSSNHASESIKQKREQNKIKKEEKAQLKEAKIERKKQKKSRQNNNVIKDVSDFPEISQSDDIPIYGHNEQEDKRPNTANQRQKRVLDNEQFQQSLPSTKNQSINNNQPSTTAENNQQQSQAEGSISEAGEEANIEYTVPPLSLLKQPTKQKTTSKAEVQRKGQVLESTLKNFGVNAKVTQIKIGPAVTQYEIQPAQGVKVSKIVNLHNDIALALAAKDVRIEAPIPGRSAVGIEVPNDKISLVTLKEVLEDKFPSKYKLEVGIGRDISGDPISIQLNEMPHLLVAGSTGSGKSVCINGIITSILLNTKPHEVKLMLIDPKMVELNVYNGIPHLLIPVVTNPHKASQALEKIVSEMERRYDLFQHSSTRNIEGYNQYIRKQNEELDEKQPELPYIVVIVDELADLMMVAGKEVENAIQRITQMARAAGIHLIVATQRPSVDVITGIIKNNIPSRIAFAVSSQTDSRTIIGAGGAEKLLGKGDMLYVGNGESTTTRIQGAFLSDQEVQDVVNYVVEQQKANYVKEMEPDAPVDKSEMKSEDALYDEAYLFVIEKQKASTSLLQRQFRIGYNRASRLMDDLERNQVIGPQKGSKPRQILVDLENDEV | failed
MSSNIAVVGDRDTVTGFRLGGVREGYVVETPDEAEETIRNLIRDGFSIIIVTEKIGDELREFIEETTSSSALPMIIEIPDKTGPSERETDPLRDLIKRVIGVEMVK | failed
MRILLATDGSPQARGAEALAEWLAYKLSAPLTVLFVVDTRLARIPELLDFGALTVPVPVLRTELERALALRGEAVLERVRQSALAAGVAVEAVLEEGVPHEAILRRARAADLLVLGRSGEAHGDGFGGLGSTADRVLRASPVPVLLAPGEPVELEGALLGYDASESAVRALHALAPLARALGLGVRVVSVHEDPARAEAWALEAEAYLRDHGVEASALVLGGDAADHLLRLQGPGDLLALGAPVRRLVFGSTAERVIRNAQGPVLTAR | failed
MILNTEEYPISIGNEIKYTKEVYDCLQLLRLRTILKEYEVNLILDVGANEGQFASVLRDIGYVGTIISFEPLSKEYRLLSQAASKDSNWYTYNLALGKQNKEQILHVSDKSTFSSFLLSNSLCEQRFGKESIGDKNEVVSVRRLDNFLVEVVKNIDKMRIYLKMDTQGYDLEVFSGAGTLLKNIVALQSEVSVVPIYHSMPDMLYSISLFQEAGFSLSGMYPVTYVKPTLQVIEFDCLMVKADTKIS | failed
MKEQYRNQNTFLSMIDMDLIRRGLLHAIQDLVFIVKVMDDETFTYIYVNKIGMDYAKLSEECYGKTFSEVLPKDTAEILQVQYAKVASEVKAHTFCDVVSLPTGNLHYESSLNPVFDEEGVCQFIICITRDIT | failed
MKLVNVTNSYKQLVNKQLENTDAYFVKVYSAGNTTAVYSEAAHHVEVLIMNKNRRIRPTEVKEILAKLLKRLPKEAYDPDEISIIELNHVTEVSVPLKVSLME | failed
MSNNTKRVGSQTIELKSKPRIIATYSVVGPREGQGPLKEYFDKILQDDCNGCESFEKAESSLMITAIEGVIKKGNVKEEDVDYLFSGDLLNQLTSTNFVAREFKIPFFGVYGACSTMAESLSLSSMIMDGDFAKYAIASTSSHFSSAERQFRFPLEYGCQRKEYSQWTVTGSGAMLLGKSGDYPYVTHVTTGIVKDYGIKDADNMGAAMAPAAVDTIYKHFVDTGRKPEDYDVIATGDLGAVGKKLTEELLKEYGYDISKVYIDCGEKIFDNEKQGTFAGGSGCGCSAVVACGYLYRMLKEKKLKRVLLVSTGALLSSTSALQGESIPGIAHAVAIEYILEHHHHHH | not failed
MKPIVIKRDGSKAPFNRDRIQAAVESAAEHADQEIAIYALNVALAVELKLRDYDEVHITEIQTLVENELMQGPYKALARSYIEYRHDRDVAREKQSK | failed
MPTFHEIDVLRHNSASWDAQAARDCEWSRPVSAEEVAAARRGDWAVKLTPGALPAHWLGDVRGREILCLASAGGQQAPILAAAGARVTLFDASAGQLDKDRQVAARDRLELACVQGDMRDLSTFADASFDLVFNPISNLYVDDVLPVWRECARVLRPGGKLLASFYNPALFIEDRSPELAEQGLIRPRHRLPYSDLESLSAEALAAKREKGEALVFGHSLTQQIAGQLAAGLLLQDFYEDWQPHPRFVIDRFVPTFLATCALKPRSAAG | failed
MKLPLHKILKNGATVELDYIKPQEYEDVRRLLNVVIDEGQTYPQKQPLSQQEFAAYWLSQDAFVIRLSGEDGTQKPQTILGSFYIKPNFPGRCSHICNAGFIVQPGLRGQGIGKFMGESMLLVAAQLGYEAVMFNLVFETNIPSITLWQSLGFDIIGSVPDAAKLADGKVVKALIMYRALGV | not failed
MVHASQLNSYSLAILKLCLFILDFVLLCFFLMLTDEEIDSDSELDEYMEQQIAALPQNEINPEEDDESDSDEMGLDEDDDSSDEEDVEAEAPLKVAPPSKKMPNGAFEIAKGGKKNKSSGGKKRCPFPCGPSCKK | failed
MKRVVEAWDRFQIPLYITALIAGALVGLQWPGSTGGFESAINPALMALLYATFLGIPITRIGAALKDLRFLIVLMSVNFVAVPLVAFALSRFIAGDEALLIGFLLVILAPCIDYVIVFAGLARAAQDKLLAATPILMLVQILLIPVFLAVFVGSDALGSISFGPFVEAFFLLILIPLVAAAGTQQVARKWQVGRTIMAAAEAIMVPLMMLTLFAVIASQVEAVSGQFTDIATVVPLYVAFLMVMIPIGGGISKLGGLGFKEQRAIVFSGATRNSLVVLPLALALPAGLEIAAVVVVTQTLVELIGMVVYVRIIPLIFHEKQTYRKLSGIGES | failed
MEKFLTTTYKELNSSMYKFSKGLTLVLFSLALSACSSSPEDNDIAAKTSPDELYSQARTSMELGNYSKAVRSLEALDSRFPFGPHKTQVQLDLIYAYYKMDDVASGIANIDRFIRLNPTHPNIDYVYYMRGLVNMQADSYLFHDMLNIDRTDRDPKNAQDAFKDFDRLIKTYPNSKYAADAQKRMLSLKNRLAKYSIQVAEYYIKMNAWSAAAVRAQSVLETYPGTPSTERALEIMAEAYGELGQNQLKQNVLMVMQANFPNNEILSN | failed
